Reference: US20260297205 (published 2026)

Each binder was assayed against human growth hormone (GH) (human, UniProt P01241) (assay: SPR, 20C).
Chain of human growth hormone (GH) (P01241 27-217): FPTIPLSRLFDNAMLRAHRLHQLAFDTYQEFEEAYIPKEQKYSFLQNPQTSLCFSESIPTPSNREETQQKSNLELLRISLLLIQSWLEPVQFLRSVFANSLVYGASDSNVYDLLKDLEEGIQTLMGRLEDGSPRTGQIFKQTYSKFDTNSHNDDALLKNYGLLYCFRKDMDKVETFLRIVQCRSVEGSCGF

Row | Binder | Kd
1 | GH19 (antibody, V domains shown) VH: EVQLVESGGGLVQPGGSLRLSCAASGFNFSYSYIHWVRQAPGKGLEWVASIYSYSGYTSYADSVKGRFTISADTSKNTAYLQMNSLRAEDTAVYYCARYKWWAMDYWGQGTLVTV VL: DIQMTQSPSSLSASVGDRVTITCRASQSVSSAVAWYQQKPGKAPKLLIYSASSLYSGVPSRFSGSRSGTDFTLTISSLQPEDFATYYCQQSGSWPITFGQGTKVEIKR | 5.9 nM
2 | GH42 (antibody, V domains shown) VH: EVQLVESGGGLVQPGGSLRLSCAASGFNFSSSYIHWVRQAPGKGLEWVASISSSSGSTSYADSVKGRFTISADTSKNTAYLQMNSLRAEDTAVYYCARSPWYVYWYFGSALDYWGQGTLVTV VL: DIQMTQSPSSLSASVGDRVTITCRASQSVSSAVAWYQQKPGKAPKLLIYSASSLYSGVPSRFSGSRSGTDFTLTISSLQPEDFATYYCQQSSSSLITFGQGTKVEIKR | 2.2 nM
3 | GH10 (antibody, V domains shown) VH: EVQLVESGGGLVQPGGSLRLSCAASGFNFYSSSIHWVRQAPGKGLEWVAYISPYSGYTSYADSVKGRFTISADTSKNTAYLQMNSLRAEDTAVYYCARIAYKWYMPYYYGMDYWGQGTLVTV VL: DIQMTQSPSSLSASVGDRVTITCRASQSVSSAVAWYQQKPGKAPKLLIYSASSLYSGVPSRFSGSRSGTDFTLTISSLQPEDFATYYCQQSLSSLVTFGQGTKVEIKR | 3.6 nM
4 | GH9 (antibody, V domains shown) VH: EVQLVESGGGLVQPGGSLRLSCAASGFNVYSSYIHWVRQAPGKGLEWVASIYSYSGYTSYADSVKGRFTISADTSKNTAYLQMNSLRAEDTAVYYCARHSSWAMDYWGQGTLVTV VL: DIQMTQSPSSLSASVGDRVTITCRASQSVSSAVAWYQQKPGKAPKLLIYSASSLYSGVPSRFSGSRSGTDFTLTISSLQPEDFATYYCQQSSFVPLTFGQGTKVEIKR | 18 nM

Next, values leading:

Row | Kd | Binder
5 | 2.6 nM | GH41 (antibody, V domains shown) VH: EVQLVESGGGLVQPGGSLRLSCAASGFNFSSSSIHWVRQAPGKGLEWVASISPYSGYTSYADSVKGRFTISADTSKNTAYLQMNSLRAEDTAVYYCARGYGGWYWWYTFAFDYWGQGTLVTV VL: DIQMTQSPSSLSASVGDRVTITCRASQSVSSAVAWYQQKPGKAPKLLIYSASSLYSGVPSRFSGSRSGTDFTLTISSLQPEDFATYYCQQSSSSELLTFGQGTKVEIKR
6 | 12.5 nM | GH18 (antibody, V domains shown) VH: EVQLVESGGGLVQPGGSLRLSCAASGFNFYSSYIHWVRQAPGKGLEWVASIYSYSGYTSYADSVKGRFTISADTSKNTAYLQMNSLRAEDTAVYYCARYKEPFGMDYWGQGTLVTV VL: DIQMTQSPSSLSASVGDRVTITCRASQSVSSAVAWYQQKPGKAPKLLIYSASSLYSGVPSRFSGSRSGTDFTLTISSLQPEDFATYYCQQSNYMPLTFGQGTKVEIKR
7 | 0.17 nM | GH23 (antibody, V domains shown) VH: EVQLVESGGGLVQPGGSLRLSCAASGFNVSSSYIHWVRQAPGKGLEWVASIYSYSGYTSYADSVKGRFTISADTSKNTAYLQMNSLRAEDTAVYYCARFWVWAMDYWGQGTLVTV VL: DIQMTQSPSSLSASVGDRVTITCRASQSVSSAVAWYQQKPGKAPKLLIYSASSLYSGVPSRFSGSRSGTDFTLTISSLQPEDFATYYCQQSSYIPLTFGQGTKVEIKR
8 | 0.14 nM | GH25 (antibody, V domains shown) VH: EVQLVESGGGLVQPGGSLRLSCAASGFNFSYYSIHWVRQAPGKGLEWVASISSYYGYTSYADSVKGRFTISADTSKNTAYLQMNSLRAEDTAVYYCARYFLGMDYWGQGTLVTV VL: DIQMTQSPSSLSASVGDRVTITCRASQSVSSAVAWYQQKPGKAPKLLIYSASSLYSGVPSRFSGSRSGTDFTLTISSLQPEDFATYYCQQYRYPPITFGQGTKVEIKR
